Measurements: publication PMC6885550 (Journal of molecular biology, 2019)
Like-named read-outs stand apart in the source and are kept apart here. No end group written: not given here.

B1: YFP-endoregulin (ELN) (natural protein, UniProt P0DI80 1-62, looked up)
chain: MDQLVFKETIWNDAFWQNPWDQGGLAVIILFITAVLLLILFAIVFGLLTSTENTQCEAGEEE
B2: YFP-ALN (another-regulin) (natural protein, UniProt Q8WVX3 1-66, looked up)
chain: MEVDAPGVDGRDGLRERRGFSEGGRQNFDVRPQSGANGLPKHSYWLDLWLFILFDVVVFLFVYFLP
B3: YFP-phospholamban (PLB) (natural protein, UniProt P26678 1-52, looked up)
chain: {YFP}-MEKVQYLTRSAIRRASTIEMPQQARQKLQNLFINFCLILICLLLICIIVMLL
modifications: cysteine pairing not given here

Columns and labels:
[1] = target: the molecule itself; test: FRET or BRET
[2] = target: the molecule itself; test: FRET or BRET; remark: listed apart in the source

Protein	stoichiometry N [1]	stoichiometry N [2]
MTGKNWILISTTTPKSLEDEIVGRLLKILFVIFVDLISIIYVVITS (natural protein, UniProt P0DMT0 1-46, looked up) [YFP-myoregulin (MLN)]	2	> 2
B1	2	> 2
B2	2	> 2
B3	2	> 2
